# Results published in the supplement of paper PMC10724198.
# ± gives the standard deviation of the averaged measurements.
# Test system: Saccharomyces cerevisiae
# Experiment: protein stability index of tFT-peptide fusion (C-terminal peptide) (PSI (0-1 scale)); higher = more stable (slower turnover)
# Conditions: genetic background: wild type; temperature: 30 C
# Experimental: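 Multiplexed protein stability (MPS) profiling in S. cerevisiae. Random 12-aa peptides (tFT-X12 library) are fused to the C-terminus of a sfGFP-mCherry tandem fluorescent timer, after mCherry and a GGGS linker. Cells are FACS-sorted into 8 mCherry/sfGFP bins and deep-sequenced. The protein stability index (PSI) is the read-weighted bin average, scaled from 0 (unstable) to 1 (stable). Only peptides with >10 reads are reported; cells were grown at 30 °C in SC-His with glucose.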
# 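Further: PSI is a weighted mean of sequencing reads over stability bins, variants kept only with over 10 reads, mCherry proximal and sfGFP distal, peptide attached via GGGS linker.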
row,Sequence,protein stability index
1,CLPLPAPLLAHL,0.666 ± 0.16
2,CLPRFLGLGGRV,0.68 ± 0.072
3,CLRPGAPESSIP,0.673 ± 0.1
4,CLRRGGAGDGAS,0.678 ± 0.011
5,CLSPAPLPPFFY,0.6724 ± 0.0018
6,CLSYSVCPFWEA,0.807 ± 0.0087
7,CLTTVCHRRVRC,0.655 ± 0.075
8,CLVGSLTDIAWL,0.756 ± 0.028
9,CLVSGGRVSRGA,0.6578 ± 0.0019
10,CLVWGGCYWDVG,0.6019 ± 0.0015
11,CLWSDQLFFYFG,0.734 ± 0.025
12,CLYLLFGLLHVG,0.545 ± 0.02
13,CMFATFLFVPPL,0.591 ± 0.014
14,CPDFSSSLTFFL,0.706 ± 0.014
15,CPFPSPTPPPPC,0.726 ± 0.095
16,CPGTSLVLPPLL,0.688 ± 0.019
17,CPIASSRHSVGL,0.823 ± 0.12
18,CPIKSLLPGSFA,0.693 ± 0.03
19,CPLPGSRHLAPV,0.742 ± 0.068
20,CPLPPSTPPLRL,0.709 ± 0.0098
21,CPPARLLPHPPA,0.733 ± 0.013
22,CPPCPSAPPPLP,0.752 ± 0.07
23,CPPFLTPRLAPA,0.778 ± 0.2
24,CPPPPPPPRPPP,0.639 ± 0.0095
25,CPSPPPIPLTLS,0.6221 ± 0.001

row,Sequence,protein stability index
1,CQDDGTAKRHKG,0.676 ± 0.061
2,CQFPSLPLPSFM,0.66 ± 0.032
3,CRAPSPRPWRPH,0.708 ± 0.062
4,CRFLDVSSWILI,0.707 ± 0.065
5,CRGILVGVWRCG,0.5856 ± 0.0014
6,CRGSGGRVVLVG,0.674 ± 0.041
7,CRKPRPLSFPLV,0.701 ± 0.043
8,CRRSCPRLTVTR,0.746 ± 0.015
9,CRSLSAPLPGSF,0.657 ± 0.021
10,CRTFSALVDRFT,0.687 ± 0.046
11,CRTPQICASCLC,0.59 ± 0.015
12,CRTSRSSSLPPY,0.7218 ± 0.0054
13,CRVNSVRPVYPS,0.7079 ± 0.0049
14,CSEGSSFVDKRG,0.594 ± 0.039
15,CSERGQVCAVVY,0.553 ± 0.066
16,CSFCVLGPGLHL,0.672 ± 0.047
17,CSLRSSGLGFKQ,0.62 ± 0.072
18,CSPSYTCRIISF,0.7076 ± 0.006
19,CSRFGRLCYNGE,0.618 ± 0.023
20,CSRPSLPIYYCS,0.581 ± 0.028
21,CSSACPPPPPAT,0.733 ± 0.014
22,CSVCPGYLFGCA,0.601 ± 0.025
23,CSVPPPLPPTTF,0.683 ± 0.073
24,CTFCLGSATVRT,0.702 ± 0.04
25,CTGLEGGGLPFR,0.636 ± 0.12

row,Sequence,protein stability index
1,CTGVFTGRCEGG,0.653 ± 0.028
2,CTISHSGHSGST,0.706 ± 0.058
3,CTQCCSGARLFM,0.672 ± 0.081
4,CTRHNGTCRVKA,0.658 ± 0.017
5,CTRRRLLVPRVK,0.599 ± 0.028
6,CTVGWNLVFQFG,0.641 ± 0.08
7,CVAACSGHAAVG,0.692 ± 0.017
8,CVAAISGESLLR,0.667 ± 0.021
9,CVDGLFCCLVFW,0.571 ± 0.028
10,CVFLGRMSFLAF,0.602 ± 0.03
11,CVGTDVWQASSR,0.6 ± 0.057
12,CVIGRDGTDLWV,0.685 ± 0.0089
13,CVPYLGEFTRNG,0.691 ± 0.038
14,CVVAISGLSHFL,0.623 ± 0.015
15,CVWCSGRSPCYV,0.634 ± 0.047
16,CVWKWFSFSGGG,0.69 ± 0.021
17,CWGGGGLWLLEV,0.515 ± 0.012
18,CWGGWGLWLLEV,0.516 ± 0.023
19,CWGLRVMGGTGR,0.702 ± 0.013
20,CWSCLRGYRFQT,0.664 ± 0.028
21,CYIFFFSRELFY,0.5685 ± 0.0045
22,DAGVDVGVGTHD,0.605 ± 0.041
23,DAGWTRGGEGVW,0.739 ± 0.032
24,DARTLTECTCRG,0.648 ± 0.072
25,DASLTSGVARST,0.67 ± 0.042

row,Sequence,protein stability index
1,DAVRRNSAWFSF,0.677 ± 0.025
2,DAWRAGESTEGG,0.71 ± 0.027
3,DCLSVWCSIPGA,0.775 ± 0.086
4,DCRELCQSEVMG,0.643 ± 0.1
5,DCRPNIRSRVSG,0.785 ± 0.18
6,DCSCIYGHRVVV,0.6466 ± 0.0038
7,DCVRMLREGAGW,0.721 ± 0.079
8,DDFSHVEVFERV,0.7 ± 0.062
9,DDGGQPKVLLCV,0.6688 ± 0.0011
10,DDGRVSLGEQSG,0.673 ± 0.036
11,DEFCSHSLAGSS,0.649 ± 0.024
12,DEGFSRSGLLLK,0.6921 ± 0.003
13,DEPGTEGAKPWR,0.727 ± 0.074
14,DETELTQRTKRV,0.656 ± 0.017
15,DFEVGPMGGFRC,0.674 ± 0.057
16,DFGYSLRIIRSE,0.746 ± 0.0099
17,DFLDPLQDEWPC,0.805 ± 0.039
18,DFPIEEILGLVG,0.65 ± 0.05
19,DFQRPGSFVFNG,0.658 ± 0.048
20,DFRAGPLPCRPP,0.6952 ± 0.0041
21,DGCRCQSMSKIS,0.553 ± 0.18
22,DGGAGGLGLLGG,0.651 ± 0.0081
23,DGGAGWLGLLGG,0.713 ± 0.034
24,DGGALGVKGCDR,0.694 ± 0.054
25,DGGVGGGAPRVR,0.78 ± 0.14

row,Sequence,protein stability index
1,DGGVPGVMVVGE,0.644 ± 0.024
2,DGLGLLVGAGVG,0.623 ± 0.085
3,DGRTYGHYKVVA,0.697 ± 0.027
4,DGSIGASPGRGL,0.695 ± 0.015
5,DGSKRDWFYNSA,0.725 ± 0.059
6,DGVRGDVVTGYL,0.7131 ± 0.0057
7,DHLQGRPDITDI,0.72 ± 0.09
8,DIAYPRITDSRC,0.714 ± 0.045
9,DIQINENIYKNK,0.687 ± 0.048
10,DISSSILEIFTS,0.7031 ± 0.0032
11,DKERRSKNRERR,0.698 ± 0.07
12,DKKHRAPGIKIV,0.5008 ± 0.0018
13,DKKPVQVIIIRK,0.667 ± 0.1
14,DKNRNKKKKYER,0.641 ± 0.038
15,DLGIFVSQQIEV,0.6065 ± 0.0048
16,DLIYRLHTANWR,0.809 ± 0.034
17,DLLTRAYPWPAE,0.692 ± 0.024
18,DLRHLLVPVPRI,0.7066 ± 0.0022
19,DLSCCVFLCLFF,0.513 ± 0.044
20,DLSLQSLRSPIT,0.672 ± 0.022
21,DLSNVITKMFVI,0.6542 ± 0.0036
22,DLTITFYKSGQL,0.715 ± 0.032
23,DLVLVSSQMPFA,0.683 ± 0.039
24,DMGGLKACRGVG,0.5695 ± 0.0028
25,DMTCSMEQHEDN,0.663 ± 0.019

row,Sequence,protein stability index
1,DMTVICDVAGQT,0.652 ± 0.019
2,DNAFATAYWIVV,0.647 ± 0.054
3,DNCIANLESGSL,0.691 ± 0.008
4,DNHGWKVEGRLL,0.686 ± 0.015
5,DNKGKDEESERR,0.709 ± 0.038
6,DPAASNTTTRRL,0.686 ± 0.064
7,DPAKRTLTRSRR,0.673 ± 0.0079
8,DPARNDTTTETI,0.666 ± 0.027
9,DPDPNHATGKIC,0.616 ± 0.014
10,DPGGLSNYSRAS,0.67 ± 0.036
11,DPHRTRPRITLP,0.715 ± 0.044
12,DPISNVDVTKIR,0.6571 ± 0.0044
13,DPPLRPSSLPPP,0.653 ± 0.0084
14,DPPSVPSPLPTS,0.689 ± 0.016
15,DQDAPNRPVDSS,0.695 ± 0.018
16,DQKSGCPVRIYR,0.623 ± 0.029
17,DQMVILSHYSVR,0.683 ± 0.038
18,DQVGWVAGVDAR,0.707 ± 0.048
19,DRGGDVGRCAGF,0.677 ± 0.011
20,DRLPRHLPSLLP,0.715 ± 0.037
21,DRMYDELFTKCC,0.619 ± 0.031
22,DRNKRDERTSEE,0.744 ± 0.026
23,DRPRPLPTPLPP,0.5905 ± 0.0021
24,DRQRVGYRGPPH,0.639 ± 0.096
25,DRVFLVDMGVMW,0.6632 ± 0.0014

row,Sequence,protein stability index
1,DRYSVGCGVSEG,0.7038 ± 0.002
2,DSAWSWTLLFVG,0.63 ± 0.026
3,DSIVHSFYIPLL,0.666 ± 0.048
4,DSKRIQSRLYYS,0.66 ± 0.027
5,DSRSPSTTLIPL,0.6623 ± 0.0018
6,DSSPIESAVAPS,0.716 ± 0.023
7,DSTMWDALSVCV,0.621 ± 0.026
8,DSVFTKALEPAW,0.722 ± 0.04
9,DTDHSSNCELPG,0.696 ± 0.083
10,DTGGGPQTSRWD,0.715 ± 0.17
11,DTSGNQLQDPDI,0.706 ± 0.029
12,DVAYSSSNAVHR,0.669 ± 0.045
13,DVESGRVDLGEE,0.787 ± 0.15
14,DVFLFPGVYFRM,0.594 ± 0.012
15,DVGFGWGCGVGG,0.736 ± 0.014
16,DVGFGWGGGVGG,0.76 ± 0.014
17,DVGSPFSISVQS,0.647 ± 0.045
18,DVLLRGAVQPIC,0.659 ± 0.0098
19,DVRNVCNISDEV,0.654 ± 0.022
20,DVVGGCEKWWER,0.734 ± 0.049
21,DVVLVSPCGQMW,0.725 ± 0.21
22,DWSGTISVSSLR,0.672 ± 0.1
23,DWTNLTVITGDT,0.674 ± 0.035
24,DYCARQRLLDQF,0.685 ± 0.11
25,DYPQWWEEQHVP,0.797 ± 0.019

row,Sequence,protein stability index
1,DYSRCGCRLSGK,0.677 ± 0.03
2,EAGESKNVDSLL,0.638 ± 0.0081
3,EAIQDCERGPCW,0.698 ± 0.0081
4,EAKKNNIVEKQR,0.681 ± 0.015
5,EAPRTPPSVPVN,0.7866 ± 0.0051
6,EAVRASSPAGLP,0.7017 ± 0.0023
7,ECCDSGLCWLTF,0.754 ± 0.034
8,ECGRWLGRGVRG,0.735 ± 0.045
9,EDFKTKQKKKKE,0.709 ± 0.077
10,EDKVRGQGSRHN,0.722 ± 0.011
11,EDRYIGITRYKD,0.682 ± 0.11
12,EDSKLVSRLSRS,0.712 ± 0.082
13,EDTYSGKGSRGV,0.774 ± 0.047
14,EEECSTPWGIRG,0.635 ± 0.048
15,EELTVLCGLLKT,0.64 ± 0.04
16,EEQKKIRKRPEK,0.69686 ± 0.00066
17,EERGGDNVTVCG,0.745 ± 0.031
18,EERLGIIVRSDR,0.635 ± 0.079
19,EFAYQSRYKVGR,0.694 ± 0.058
20,EFFSDLLEMIRL,0.725 ± 0.033
21,EFSILLPLPFFR,0.656 ± 0.076
